{
  "source": "paper PMC5620043",
  "about": "“A general mechanism of ribosome dimerization revealed by single-particle cryo-electron microscopy” (Nature Communications, 2017)",
  "proteins": {"B1": {"name": "HPF^long from L. lactis with N-terminal Strep-tag (natural protein, UniProt A2RIX0 1-185, looked up)", "chain": "MIKFNIRGENVEVTDAIRAYVEDKIGKLDKYFNDGHEVTAYVNLKVYTEKRAKVEVTLPAKNVTLRAEDTSQDMYSSIDFVEEKLERQIRKYKTRMNRKPRNAVPTGQVFGDEFAPLDTTDEVAEDHVDIVRTKHVALKPMDAEEAVLQMDMLGHDFYVFTDADSNGTHVVYRRTDGRYGLIETE", "notes": "HPF^long of Lactococcus lactis, 185 residues, calculated monomer mass 21.3 kDa; also called purified HPF^long; source: overexpressed in L. lactis NZ9000, purified on a Strep-tactin Sepharose column"}},
  "target": "the molecule itself",
  "test": "SEC-MALS; SEC-MALLS, Superdex 200 10/300, 100 mM Tris-HCl, 150 mM NaCl, pH 8.0; protein concentrated to about 4 mg/ml; three batches, two with 10% glycerol",
  "data": [
    {"protein": "B1", "values": [
      {"measurement": "stoichiometry N", "result": 2}
    ]}
  ]
}
